Experimental data: US20240287172A1 (SCIRHOM, published 2024)

Molecular target: T1, miR2-FL-WT-T7 (mouse, UniProt Q80WQ6 1-827)
T1 construct: on MEF-DKO cells
T1 sequence: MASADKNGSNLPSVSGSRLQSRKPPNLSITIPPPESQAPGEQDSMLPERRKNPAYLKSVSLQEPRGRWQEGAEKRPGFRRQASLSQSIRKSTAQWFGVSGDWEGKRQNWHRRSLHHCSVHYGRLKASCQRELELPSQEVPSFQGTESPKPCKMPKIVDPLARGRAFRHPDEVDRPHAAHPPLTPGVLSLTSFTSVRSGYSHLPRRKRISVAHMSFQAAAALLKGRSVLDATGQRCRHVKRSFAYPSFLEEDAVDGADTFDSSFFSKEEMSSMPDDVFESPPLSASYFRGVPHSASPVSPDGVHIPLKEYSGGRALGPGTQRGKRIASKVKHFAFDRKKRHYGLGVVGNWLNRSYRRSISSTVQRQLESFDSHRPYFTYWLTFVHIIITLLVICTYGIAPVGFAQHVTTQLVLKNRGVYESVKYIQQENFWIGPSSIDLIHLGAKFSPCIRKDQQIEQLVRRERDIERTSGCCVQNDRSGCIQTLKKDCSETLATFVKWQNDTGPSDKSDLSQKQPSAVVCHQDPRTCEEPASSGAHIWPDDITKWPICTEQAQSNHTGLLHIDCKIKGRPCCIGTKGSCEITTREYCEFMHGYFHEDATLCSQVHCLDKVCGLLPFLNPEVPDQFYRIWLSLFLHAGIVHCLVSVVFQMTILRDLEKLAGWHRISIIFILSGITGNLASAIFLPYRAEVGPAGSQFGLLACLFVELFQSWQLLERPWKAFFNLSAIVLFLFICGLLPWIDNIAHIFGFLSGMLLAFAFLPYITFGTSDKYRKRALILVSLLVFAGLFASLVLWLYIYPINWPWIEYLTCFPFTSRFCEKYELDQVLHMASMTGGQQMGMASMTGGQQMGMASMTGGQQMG
Assay: FACS, MEF-DKO-miR2-FL-WT-T7 cells
Procedure: In brief, immortalized MEF-DKO-EV control cells, MEF-DKO-hiR2-FL-WT-T7 cells and MEF-DKO-miR2-FL-WT-T7 cells were harvested with 10 mM EDTA in PBS, washed and resuspended in FACS buffer (PBS, 3% FBS, 0.05% sodium azide), and seeded in Nunc U-bottom 96-well plates (Thermo Fisher Scientific, USA) at approximately 3×10⁵ cells per well. To pellet cells and remove supernatants, the plates were centrifuged at 1,500 rpm and 4° C. for 3 minutes. For primary staining, cells were resuspended in 100 μl per well of either FACS buffer alone (controls), mouse monoclonal anti-T7 IgG (Merck Millipore, USA) at 3 μg/ml FACS buffer or the purified antibodies 3, 5, 16, 22, 34, 42, 43, 44, 48, and 50 of the invention also at 3 μg/ml FACS buffer and incubated on ice for 1 hour. Afterwards, plates were centrifuged at 1,500 rpm and 4° C. for 3 minutes and washed twice with 200 μl per well of FACS buffer. For secondary staining, cells were spun down and resuspended in 100 μl per well of PE-conjugated goat anti-mouse IgG F(ab′)2 detection fragment (Dianova, Germany) diluted 1:100 in FACS buffer. Protected from light, the cell suspensions were incubated on ice for 1 hour. […] Finally, cells were resuspended in 150 μl per well of FACS buffer and analyzed using a BD Accuri™ C6 Plus flow cytometer (Becton Dickinson, Germany).

B1: antibody 48 (antibody, V domains shown)
VH: QVQLQQSGTELVRPGTSVKVSCKASGYAFTNYLIEWVKQRPGQGLEWIGVINPGSGFTKYNEKFKGKATLTADKSSSTVYMHLSSLTSEDSAVYFCARGLYRAMDYWGQGTSVTVSS
VL: DIQMTQSPASQSASLGESVTITCLASQTIATWLAWYQQKPGKSPQLLIYGATTLADGVPSRFSGGGSGTKFSFKISSLQAEDFVSYYCQQLYSTPYTFGGGTKLEIK
notes: mouse IgG, kappa light chain; also called clone #48; purified antibody 48
binding result: no binding (tested: 3 µg/ml)
